Test [1] concerns the target SEL1L S658P (mouse knock-in) (mouse (endogenous in MEFs and liver)) (UniProt Q9Z2G6). Briefly: co-IP.
Test [2] shares this target. Briefly: co-IP. The source holds these as a separate data set.

Like-named read-outs stand apart in the source and are kept apart here.

Chain of UniProt Q9Z2G6 (Q9Z2G6 22-790, stated change not applied): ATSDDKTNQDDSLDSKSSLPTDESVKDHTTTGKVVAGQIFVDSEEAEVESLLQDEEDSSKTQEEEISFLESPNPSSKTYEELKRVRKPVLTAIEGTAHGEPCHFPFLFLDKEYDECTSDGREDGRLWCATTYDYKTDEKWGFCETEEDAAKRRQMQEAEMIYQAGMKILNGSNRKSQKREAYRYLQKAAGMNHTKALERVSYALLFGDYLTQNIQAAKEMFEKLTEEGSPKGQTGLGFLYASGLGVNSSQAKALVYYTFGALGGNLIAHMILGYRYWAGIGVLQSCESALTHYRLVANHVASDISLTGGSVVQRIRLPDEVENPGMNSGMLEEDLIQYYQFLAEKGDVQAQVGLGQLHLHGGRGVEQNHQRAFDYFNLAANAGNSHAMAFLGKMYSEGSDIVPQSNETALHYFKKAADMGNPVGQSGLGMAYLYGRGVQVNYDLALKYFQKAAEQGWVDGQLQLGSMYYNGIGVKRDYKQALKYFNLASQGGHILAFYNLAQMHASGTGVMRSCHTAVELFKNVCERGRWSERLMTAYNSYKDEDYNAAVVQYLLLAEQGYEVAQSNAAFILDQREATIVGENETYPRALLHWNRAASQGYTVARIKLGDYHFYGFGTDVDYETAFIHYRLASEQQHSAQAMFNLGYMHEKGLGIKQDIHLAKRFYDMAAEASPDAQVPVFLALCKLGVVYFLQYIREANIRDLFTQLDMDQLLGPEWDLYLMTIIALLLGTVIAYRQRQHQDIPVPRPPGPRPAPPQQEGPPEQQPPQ

With “HRD1 (mouse) (from UniProt Q9DBY1 1-612) (natural protein)”, the values for the percent reduction of co-precipitated HRD1 against WT SEL1L in test [1] and in test [2] were 80% and 60%, respectively.

The values above are taken from doi:10.1101/2025.08.01.668162.
